# From patent US20110305716A1
# Columns and labels:
# [1] = target: rat total IgG (Sigma-Aldrich) (rat); experiment: ELISA; rat total IgG coated on plate, 10 ng TGF-beta in PBS, 18 h 4 C, bound TGF-beta detected with TGF-beta ELISA kit
# [2] = target: rat total IgG (Sigma-Aldrich) (rat); experiment: ELISA; rat total IgG coated on plate, 10 ng TGF-beta in 10% glycerol in 0.1M Tris pH 7.4, 18 h 4 C, bound TGF-beta detected with TGF-beta ELISA kit
# [3] = target: rat total IgG (Sigma-Aldrich) (rat); experiment: ELISA; rat total IgG coated on plate, 10 ng TGF-beta in 0.1M Tris pH 7.4 (0 mM NaCl), 18 h 4 C, bound TGF-beta detected with TGF-beta ELISA kit
# [4] = target: rat total IgG (Sigma-Aldrich) (rat); experiment: ELISA; rat total IgG coated on plate, 10 ng TGF-beta in 10% glycerol in PBS, 18 h 4 C, bound TGF-beta detected with TGF-beta ELISA kit
# [5] = target: total mouse IgG (Sigma-Aldrich) (mouse); experiment: 20 ng TGF-beta and 1 ug soluble total mouse IgG, 5 min in PBS at room temperature; Sepharose G-50 spin column; TGF-beta ELISA of eluate
# [6] = target: TGF-beta receptors on mink lung epithelial cells (ATCC CCL-64) (mink); experiment: cell-based or functional assay
# [7] = target: total mouse IgG (Sigma-Aldrich) (mouse); experiment: 20 ng TGF-beta and 1 ug soluble total mouse IgG, 5 min in 0.5x PBS pH 11 at room temperature; Sepharose G-50 spin column; TGF-beta ELISA of eluate
# [8] = target: total mouse IgG (Sigma-Aldrich) (mouse); experiment: 20 ng TGF-beta and 1 ug soluble total mouse IgG, 5 min in PBS at 42 C; Sepharose G-50 spin column; TGF-beta ELISA of eluate
# [9] = target: Mouse IgG1 (eBioscience) (mouse); experiment: Sephadex G-50 gel filtration of the TGF-beta/IgG mixture; fractions assayed by TGF-beta ELISA
# [10] = target: Mouse IgG2a (eBioscience) (mouse); experiment: as above
substance,measurement,setting,value
"TGF-beta (Leinco Technologies, St. Louis, Mo.) (from UniProt P01137 279-390) (ligand)",Net Absorbance (450) (absorbance at 450),[1],0.18
same,Net Absorbance (450) (absorbance at 450),[2],0.7
same,Net Absorbance (450) (absorbance at 450),[3],1.02
same,Net Absorbance (450) (absorbance at 450),[4],0
Transforming growth factor-beta 1 (Peprotech) (from UniProt P01137 279-390) (ligand),Net Absorbance (450) (absorbance at 450),[5],0.193
same,Cell Viability (OD450/Control OD450) at 0.25 pg/mL acid-dissociated (Treated) AcTigg (OD450/Control OD450),[6],0.621
same,Cell Viability (OD450/Control OD450) at 2.5 pg/mL acid-dissociated (Treated) AcTigg (OD450/Control OD450),[6],0.645
same,Cell Viability (OD450/Control OD450) at 25 pg/mL acid-dissociated (Treated) AcTigg (OD450/Control OD450),[6],0.651
same,Cell Viability (OD450/Control OD450) at 250 pg/mL acid-dissociated (Treated) AcTigg (OD450/Control OD450),[6],0.651
same,Cell Viability (OD450/Control OD450) at 2500 pg/mL acid-dissociated (Treated) AcTigg (OD450/Control OD450),[6],0.616
same,Net Absorbance (450) (absorbance at 450),[7],0.558
same,Net Absorbance (450) (absorbance at 450),[8],0.117
same,percent of TGF-beta eluting in the IgG-bound fraction,[9],40 to 50%
same,percent of TGF-beta eluting in the IgG-bound fraction,[10],40 to 50%
"mouse AcTigg (TGF-beta 1 non-covalently bound to mouse IgG1), PEG-precipitated, intact (from UniProt P01137 279-390)",Cell Viability (OD450/Control OD450) at 0.25 pg/mL AcTigg (OD450/Control OD450),[6],0.965
same,Cell Viability (OD450/Control OD450) at 2.5 pg/mL AcTigg (OD450/Control OD450),[6],0.924
same,Cell Viability (OD450/Control OD450) at 25 pg/mL AcTigg (OD450/Control OD450),[6],0.897
same,Cell Viability (OD450/Control OD450) at 250 pg/mL AcTigg (OD450/Control OD450),[6],0.817
same,Cell Viability (OD450/Control OD450) at 2500 pg/mL AcTigg (OD450/Control OD450),[6],0.678
